MFI data for four molecules are collected here from patent publication US20260062491A1.

Experiment [1] deals with CD40 on peripheral blood B cells (CD3- CD19+ cells of PBMC) (UniProt P25942). Description: flow cytometry: PBMC stained with the secondary anti-His tag antibody alone (negative control); gate lymphoid, single, viable, CD3- CD19+ cells [panel B].
Experiment [2] shares this target. Description: flow cytometry: PBMC incubated with 0.043 uM His-tagged CD40L construct, secondary anti-His tag antibody; gate lymphoid, single, viable, CD3- CD19+ cells [panel B].

Control (antibody): in experiment [1], the MFI is 99.
WT (ligand) gave an MFI in experiment [2] of 1300.

B1: EPC10 (ligand, not shown: small tags and cut ends)
chain: GDQNPQIAAHVISEASSTTTSVLQWAEKGYYTMSNNLVTLENGKQLTVKRQGLYYIYAQVTFCSNREASSQAPFIASLCLKSPGRFERILLRAANTHSSAKHCGQQSIHLGGVFELQPGASVFVNVTDPSQVSHGTGFTSFGLFKL
In the case of B1, the MFI in experiment [2] came to 1180.

B2: EPC7 (ligand, not shown: small tags and cut ends)
chain: GDQNPQIAAHVISEASSKTTSVLQWAEKGYYTMSNNLVTLENGKQLTVKRQGLYYIYAQVTFCSNREASGQAPFIASLCLKSPGRFERILLRAANTHSSAKRCGQQSIHLGGVFELQPGASVFVNVTDPSQVSHGTGFTSFGLFKL
Molecule B2 showed an MFI in experiment [2] of 1360.
